# Biological target: T1, membrane-bound HLA-A0201 molecule on T2 cells (human)
# T1 construct: whole, on cells; also called surface HLA-A0201 molecules; human MHC class 1 molecule
# Test: T2 cell HLA-A0201 stabilisation, BB7.2 staining, flow cytometry
# Method: Thus, the detection of this specific epitope is indicative of stable membrane-bound HLA-A0201 molecules loaded with peptide. Subsequent dissociation of peptides from the HLA class 1 MHC molecules results in the loss of BB7.2 monoclonal antibody binding.
# T2 cells were propagated in Iscove's complete medium (iscove's medium supplemented with 10% heat-inactivated bovine serum, 120.0 units per ml of penicillin G sodium, 120 μg per ml of streptomycin sulphate, and 0.35 mg per ml of L-glutamine). The ability of PSA peptides (Table 1) to bind and stabilize surface HLA-A0201 molecules on T2 cells was determined utilizing a protocol documented in the art (Deng, Y. (1997) J Immune 158:1507-1515). In essence, 0.5×10⁶ T2 cells were incubated with 125.0 μM of the test peptide in 200.0 μl of serum-free culture medium (Iscove's medium supplemented with 120.0 units per ml of penicillin G sodium, 120.0 μg per ml of streptomycin sulphate and 0.35 mg per ml of L-glutamine) overnight at 37° C. Subsequently, cells were washed twice with Iscove's medium (without bovine serum) to remove free PSA peptide. […] The binding of BB7.2 was detected via the addition of 100.0 μl of PBA containing […] of goat anti-mouse IgG-Fc fluorescein (FITC) conjugate (BETHYL Laboratories Inc.). […] Samples were analyzed by Flow Cytometry. Results were expressed in units of Fluorescence Index (FI), calculated by the equation: […]
binder,measurement,value
DLHVISNDV [CLP-317],binding result,no binding
